Measured values published in the RNAGym collection of RNA variant scans (doi:10.1093/nar/gkz1192).

B1: CPEB3 Ribozyme (parent)
chain: UAACAGGGGGCCACAGCAGAAGCGUUCACGUCGCAGCCCCUGUCAGAUUCUGGUGAAUCUGCGAAUUCUGCUGUAUAUCUC

Variants of: B1
Assay: self-cleavage, relative activity (ratio to wild type); higher = more cleavage; in vitro, sequencing
How it was run: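 For each CPEB3 ribozyme variant, relative activity is its cleaved/total read fraction divided by the unmutated ribozyme's. Barcoded error-prone PCR libraries were transcribed by T7 RNA polymerase (5 hours, 37°C) and held in DNase I for 15 min before an EDTA stop, with cleavage occurring throughout. Template-switching reverse transcription and Illumina sequencing were used to read the RNAs. A 5-read minimum applied, and results are the mean of three batches.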

Variant | self-cleavage
G7C U26C | 0.35
G7A U67C | 0.25
G7A U67A | 0.17
G6U A45U | 0.19
G6U A45G | 0.11
G7U C29U | 0.09
G7A A20G | 0.26
G7A A20C | 0.27
G6U U25C | 0.37
G6U A65U | 0.23
G7C U60C | 0.2
G7U G63A | 0.33
G7C C37U | 0.24
G8A C39G | 0.06
G8A C39A | 0.21
G6U U66C | 0.2
G6U U66A | 0.13
G6U C29U | 0.25
G7U G42U | 0.14
G7C U80C | 0.27
G7C U80A | 0.37
G6U C12U | 0.19
G8A A13U | 0.3
G8A A13G | 0.44

Variant | self-cleavage
G7U A64U | 0.13
G7U A64C | 0.13
G7U A64G | 0.14
G6C U72A | 0.18
G7C A45G | 0.26
G7U A20U | 0.11
G7U A20G | 0.27
G8A A18U | 0.07
G8A A18G | 0.21
G7C U66C | 0.5
G6U G16C | 0.19
G7A U49C | 0.2
G6U A18C | 0.14
G6U A18U | 0.12
G8A A56C | 0.24
G8A A56U | 0.38
G8A A56G | 0.24
G7C A15U | 0.18
G7C A15G | 0.21
G7A U60C | 0.11
G7A U60A | 0.37
G8A A20G | 0.25
G8A A20U | 0.22
G7U U74C | 0.46

Variant | self-cleavage
G7U U74A | 0.22
G6U C23U | 0.25
G7A A35G | 0.46
G7A A35U | 0.19
G6C U78C | 0.48
G7U A65G | 0.4
G7A U51C | 0.2
G7A U51G | 0.1
G7A U51A | 0.35
G7A U72C | 0.48
G7C U69C | 0.2
G6U G9A | 0.4
G7U A56G | 0.23
G7U A56U | 0.16
G7U C79A | 0.28
G7A C14A | 0.31
G7A G46A | 0.07
G7A G46U | 0.39
G7U U41C | 0.21
G7U U66C | 0.17
G7A G16C | 0.23
G7C A18G | 0.33
G6U U31A | 0.17
G6U U31C | 0.22

Variant | self-cleavage
G7C C50A | 0.29
G7U U25C | 0.2
G7U U25A | 0.15
G7A C32U | 0.09
G6U C32U | 0.08
G8A A21G | 0.28
G6U A77U | 0.16
G7U U78C | 0.13
G7U U78A | 0.48
G6U U67A | 0.09
G6U U67C | 0.11
G6U U69C | 0.22
G7A A45U | 0.16
G7A A45G | 0.16
G7U U49C | 0.11
G8A C27U | 0.08
G7C U67C | 0.19
G7C A57U | 0.19
G8A C23A | 0.06
G8A C23U | 0.07
G8A C37U | 0.05
G8A C37A | 0.15
G7A G30A | 0.35
G7U C34U | 0.07

Variant | self-cleavage
G7A A13G | 0.3
G7U A75U | 0.13
G7U A75G | 0.2
G7U C37G | 0.53
G7U C37A | 0.17
G7C A35G | 0.31
G7C A35C | 0.09
G7C A13G | 0.32
G7C A13C | 0.09
G7C A13U | 0.26
G7U A57G | 0.19
G7A A57G | 0.12
G8A A57U | 0.11
G8A A57G | 0.26
G7A U69C | 0.26
G7A U69A | 0.39
G7A G24A | 0.08
G6U A57G | 0.43
G7U U69C | 0.19
G7U U69A | 0.2
G7U U51C | 0.28
G7U U51G | 0.2
G7U U51A | 0.21
G7A A15G | 0.09

Variant | self-cleavage
G7A A15U | 0.23
G6U C79A | 0.46
G7U U58A | 0.25
G7U U58C | 0.2
G7U U72G | 0.07
G7U U72C | 0.25
G7C C32U | 0.12
G8A C34U | 0.39
G7U U26A | 0.21
G7U U26C | 0.15
G7A G8C | 0.15
G8A A15C | 0.31
G8A A15U | 0.16
G8A A15G | 0.3
G6U U26C | 0.38
G6U U26A | 0.13
G8A C29U | 0.24
G6U G10A | 0.34
G6U A75G | 0.09
G7U G36C | 0.14
G7U A45G | 0.22
G7U A45U | 0.14
G7U A45C | 0.2
G7A C37A | 0.11

Variant | self-cleavage
G6U A15C | 0.19
G6U A15U | 0.41
G7A A64G | 0.28
G7A A64U | 0.18
G7U A15U | 0.23
G7U A15G | 0.27
G6U A21C | 0.17
G6U A21G | 0.29
G7A G53A | 0.19
G6U C62G | 0.25
G7C U49A | 0.26
G7U U60C | 0.1
G8A A47G | 0.23
G8A A47U | 0.2
G7C U41C | 0.2
G7U C39U | 0.19
G7A A28C | 0.2
G7A A28G | 0.16
G6C U74C | 0.67
G8A A65U | 0.06
G8A A65G | 0.14
G6U A56U | 0.22
G6U A56G | 0.41
G6U U49C | 0.22

Variant | self-cleavage
G6U U49A | 0.38
G6U A28G | 0.38
G7U A47C | 0.37
G7U A47G | 0.29
G8A C62A | 0.07
G8A C62U | 0.22
G7A G55U | 0.2
G7A G55A | 0.15
G6U C71A | 0.16
G6U A64G | 0.32
G6U A64U | 0.07
G6U U51C | 0.36
G7C A56G | 0.23
G7A U74A | 0.09
G7A U74C | 0.5
G7A A65G | 0.11
G7C U72G | 0.27
G7C U72C | 0.37
G8A A75U | 0.24
G8A A75G | 0.21
G6U G73A | 0.57
G7A A18G | 0.25
G7C U54C | 0.34
G7C U54A | 0.22

Variant | self-cleavage
G7A C11G | 0.07
G7A U43A | 0.32
G7A U43C | 0.21
G7A U43G | 0.15
G7C U51C | 0.28
G7C U43A | 0.24
G7C U43C | 0.36
G7A C59A | 0.04
G7U G33A | 0.11
G6U U58C | 0.16
G7C | 0.29
G7A | 0.25
G7U | 0.25
G7C A20U | 0.22
G7U U31A | 0.07
G7U U31C | 0.15
G7A U66C | 0.13
G7A U25A | 0.15
G7A U25C | 0.33
G7U C17U | 0.2
G7A A77U | 0.26
G7A U78C | 0.15
G7A U78G | 0.08
G7A G73A | 0.48

Variant | self-cleavage
G7U G55A | 0.08
G7U U43A | 0.09
G7U U43C | 0.38
G7U U54C | 0.24
G7A U54A | 0.47
G7A U54C | 0.38
G7A U54G | 0.22
G6U U78A | 0.79
G7C G9U | 0.36
G7C G9A | 0.23
G6U A35U | 0.36
G6U A35G | 0.41
G7A C62U | 0.22
G7C A64G | 0.35
G7A A56G | 0.15
G7A A56U | 0.52
G7U G73U | 0.23
G8A | 0.27
G6U A47U | 0.17
G6U A47G | 0.36
G7C U25A | 0.27
G7C U25C | 0.27
G6U U48C | 0.13
G6U U48A | 0.16

Variant | self-cleavage
G6C U67C | 0.3
G8A A77U | 0.18
G8A A77C | 0.09
G8A A77G | 0.23
G7U G30A | 0.16
G6U G8A | 0.23
G6U G7A | 0.33
G7A U58A | 0.27
G7A U58C | 0.13
G7C G24C | 0.15
G7A C29A | 0.36
G8A A64G | 0.22
G8A A64U | 0.27
G7U U67C | 0.25
G7A G70C | 0.06
G7A C40U | 0.3
G7A C40A | 0.18
G6U U43C | 0.32
G7U A21G | 0.31
G7U A21U | 0.34
G7U C62U | 0.21
G7U C62G | 0.17
G7A G10A | 0.24
G6U U72C | 0.37

Variant | self-cleavage
G8A A35U | 0.14
G8A A35G | 0.5
G8A A35C | 0.21
G8A C40U | 0.14
G8A C40A | 0.16
G6U A20G | 0.26
G6U A20U | 0.34
G7C A21G | 0.34
G6U U41A | 0.35
G7A C12U | 0.07
G8A C44A | 0.26
G8A C44U | 0.08
G8A C59A | 0.06
G6U U80A | 0.44
G6U U80C | 0.09
G6U A13U | 0.18
G7U A13U | 0.34
G7U A13G | 0.18
G7C G61C | 0.1
G6U U76A | 0.32
G6U U76C | 0.15
G7C U31C | 0.41
G7C U31A | 0.25
G7C U48C | 0.4

Variant | self-cleavage
G7C G30U | 0.14
G7A A75G | 0.3
G7U C50A | 0.06
G7A U41C | 0.25
G7A U41A | 0.13
G7A A47G | 0.09
G7A U26A | 0.28
G7A U26C | 0.25
G7A U26G | 0.07
G7U U80C | 0.27
G7U A18G | 0.19
G7A U80A | 0.25
G7A U80C | 0.29
G6C U69C | 0.21
G8A A45U | 0.06
G8A A45G | 0.29
G8A A28U | 0.14
G8A A28G | 0.23
G7A U48A | 0.31
G7A U48C | 0.16
G7A A21G | 0.33
G7U C32U | 0.07
G7C A65G | 0.22
G6U U74G | 0.4

Variant | self-cleavage
G8A C12G | 0.09
G6U C11A | 0.16
G8A C32A | 0.2
G7C A75U | 0.31
G8A C14G | 0.38
G8A C14U | 0.08
G8A C38U | 0.08
G7U G24A | 0.22
G7A U31C | 0.25
G7A U31G | 0.14
G7A G33U | 0.07
G6U G52A | 0.47
G8A C50U | 0.12
G6U | 0.35
G8A C17U | 0.25
G6U C59U | 0.09
G7U U48A | 0.07
G7C A47G | 0.43
G6U U60C | 0.24
G6U U60A | 0.49
G7U A35U | 0.38
G7U A35G | 0.14
